Reference: patent US20240116985A1 (published 2024)
Starred links: 1 amine or outer side, 2 acyl side, 3 side chain; linkers in the order of their positions; H or OH if unused. Positions of bridges follow the written chain, without caps; N, C: chain ends. Non-standard residues stand in square brackets, D forms with d. Primed or numbered codes have the meaning given here. B5(16) = 2-amino-2-(pent-4-en-1-yl)hept-6-enoic acid = 2,2-bis(4-pentenyl)glycine (stitching residue), C=CCCCC(CCCC=C)(N[*:1])C(=O)[*:2]; TfeGA = (S)-2-amino-3-((carboxymethyl)(2,2,2-trifluoroethyl)amino)propanoic acid, O=C([C@H](CN(CC(=O)[*:3])CC(F)(F)F)N[*:1])[*:2]; PyrS2(5) = (S)-3-amino-1-((alkenyloxy)carbonyl)pyrrolidine-3-carboxylic acid, carbamate stapling residue; B5(3) = 2,2-bis(4-pentenyl)glycine (stitching residue), C=CCCCC(CCCC=C)(N[*:1])C(=O)[*:2]; Phe(3-COOH) = N[C@@H](Cc1cccc(C(=O)O)c1)C(=O)O; Phe(2-Cl) = N[C@@H](Cc1ccccc1Cl)C(=O)O; Bta = N[C@@H](Cc1csc2ccccc12)C(=O)O; αAllylPro = C=CC[C@@]1(C(=O)O)CCCN1; tBuAla = CC(C)(C)C[C@H](N)C(=O)O; S8 = C=CCCCCCC[C@](C)(N)C(=O)O; hSer = N[C@@H](CCO)C(=O)O; Nle = CCCC[C@H](N)C(=O)O

T1: beta-catenin in DLD1 TCF/LEF luciferase reporter cells (UniProt P35222 1-781)
T1 sequence (looked up): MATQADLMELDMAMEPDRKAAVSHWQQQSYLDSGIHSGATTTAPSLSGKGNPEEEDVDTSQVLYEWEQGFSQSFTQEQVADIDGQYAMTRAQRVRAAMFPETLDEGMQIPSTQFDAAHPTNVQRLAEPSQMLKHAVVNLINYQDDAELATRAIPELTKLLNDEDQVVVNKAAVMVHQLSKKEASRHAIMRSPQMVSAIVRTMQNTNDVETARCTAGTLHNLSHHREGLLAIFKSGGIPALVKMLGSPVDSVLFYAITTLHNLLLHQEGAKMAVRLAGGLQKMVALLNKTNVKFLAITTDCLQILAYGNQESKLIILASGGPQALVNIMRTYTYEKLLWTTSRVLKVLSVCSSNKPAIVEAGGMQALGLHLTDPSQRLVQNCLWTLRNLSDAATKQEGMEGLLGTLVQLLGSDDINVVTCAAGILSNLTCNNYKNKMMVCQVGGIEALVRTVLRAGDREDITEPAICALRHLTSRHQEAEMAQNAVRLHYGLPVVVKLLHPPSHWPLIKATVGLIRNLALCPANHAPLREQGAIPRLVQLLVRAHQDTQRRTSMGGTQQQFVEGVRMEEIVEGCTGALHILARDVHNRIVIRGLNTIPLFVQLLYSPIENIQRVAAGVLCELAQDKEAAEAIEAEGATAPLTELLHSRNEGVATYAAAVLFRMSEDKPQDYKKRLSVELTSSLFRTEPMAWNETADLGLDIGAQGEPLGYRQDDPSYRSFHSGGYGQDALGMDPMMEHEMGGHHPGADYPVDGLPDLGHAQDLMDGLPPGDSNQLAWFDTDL

T2: B-cat-Halo (UniProt P35222 1-781)
T2 sequence (looked up): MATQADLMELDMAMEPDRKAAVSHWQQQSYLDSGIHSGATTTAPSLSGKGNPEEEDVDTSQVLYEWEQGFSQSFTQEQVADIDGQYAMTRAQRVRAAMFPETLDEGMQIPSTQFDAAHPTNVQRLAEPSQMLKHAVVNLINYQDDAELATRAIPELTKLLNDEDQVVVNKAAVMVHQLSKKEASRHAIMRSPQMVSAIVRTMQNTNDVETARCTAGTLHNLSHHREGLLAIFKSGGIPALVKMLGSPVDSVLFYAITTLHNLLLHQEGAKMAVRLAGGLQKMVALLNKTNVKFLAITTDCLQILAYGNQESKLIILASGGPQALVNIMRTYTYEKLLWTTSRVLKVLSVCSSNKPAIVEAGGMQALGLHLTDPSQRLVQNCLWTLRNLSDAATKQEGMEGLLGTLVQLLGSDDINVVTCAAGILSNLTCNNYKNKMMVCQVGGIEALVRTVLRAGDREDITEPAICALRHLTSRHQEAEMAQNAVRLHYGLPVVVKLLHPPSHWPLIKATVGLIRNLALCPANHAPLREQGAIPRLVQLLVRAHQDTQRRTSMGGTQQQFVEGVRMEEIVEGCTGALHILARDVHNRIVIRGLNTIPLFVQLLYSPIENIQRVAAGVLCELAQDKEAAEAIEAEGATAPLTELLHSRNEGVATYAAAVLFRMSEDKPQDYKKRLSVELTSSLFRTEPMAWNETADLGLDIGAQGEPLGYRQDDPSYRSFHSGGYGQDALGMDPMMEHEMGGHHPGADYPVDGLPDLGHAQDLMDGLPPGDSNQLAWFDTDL

T3: beta-catenin in DLD1 TCF/LEF luciferase reporter cells (UniProt P35222 1-781)
T3 sequence (looked up): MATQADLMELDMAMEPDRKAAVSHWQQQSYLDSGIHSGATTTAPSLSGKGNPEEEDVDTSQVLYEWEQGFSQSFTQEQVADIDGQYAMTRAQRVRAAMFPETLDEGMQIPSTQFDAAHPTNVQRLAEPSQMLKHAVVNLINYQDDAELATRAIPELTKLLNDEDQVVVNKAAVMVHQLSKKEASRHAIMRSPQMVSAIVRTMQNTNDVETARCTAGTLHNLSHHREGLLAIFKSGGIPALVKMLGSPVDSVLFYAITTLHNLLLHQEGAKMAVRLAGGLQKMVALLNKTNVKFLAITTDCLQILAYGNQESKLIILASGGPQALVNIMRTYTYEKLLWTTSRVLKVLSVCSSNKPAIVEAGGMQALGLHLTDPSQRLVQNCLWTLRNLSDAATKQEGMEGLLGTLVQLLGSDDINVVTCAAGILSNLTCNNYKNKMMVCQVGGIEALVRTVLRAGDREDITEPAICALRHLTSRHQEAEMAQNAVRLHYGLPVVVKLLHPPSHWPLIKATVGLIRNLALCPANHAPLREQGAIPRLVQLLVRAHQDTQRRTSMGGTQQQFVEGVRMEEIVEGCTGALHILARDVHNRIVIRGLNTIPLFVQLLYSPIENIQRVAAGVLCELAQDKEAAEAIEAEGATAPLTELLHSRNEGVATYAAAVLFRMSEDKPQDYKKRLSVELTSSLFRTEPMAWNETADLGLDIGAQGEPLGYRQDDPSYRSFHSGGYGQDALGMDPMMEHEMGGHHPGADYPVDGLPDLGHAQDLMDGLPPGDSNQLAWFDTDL


What was measured:
Assay in all cases: cell-based or functional assay
[1] = biological target: T1, beta-catenin in DLD1 TCF/LEF luciferase …
B-cat-Halo = biological target: T2, B-cat-Halo
[2] = biological target: T3, beta-catenin in DLD1 TCF/LEF luciferase …; remark: listed apart in the source

DLD1 4% Abs IC50 [1] [µM] | NanoBRET Abs IC50 (B-cat-Halo) [µM] | DLD1 4% Abs IC50 [2] [µM] | Binder
3.6 | 11.3 |  | Ac-[αAllylPro]D[tBuAla][B5(3)]D[TfeGA]AAF[hSer][S8][Phe(2-Cl)][Bta]Q-NH2 (staple 1-4, 4-11) [I-996]
 |  | 1.3 | Ac-[αAllylPro]D[tBuAla][B5(16)]D[Phe(3-COOH)][Nle]AFL[PyrS2(5)][Phe(2-Cl)][Bta]Q-NH2 (staple 1-4, 4-11) [I-1685]
